The results in this text go back to patent US20030207263A1, “Method of screening therapeutic agents” (priority 1998, published 2003).

The test system of series [1] is CAGA-reporter cells (i.e F89 or 1613). As to the kind of experiment: Toxic-compound control wells of the automated high throughput transcriptional screen. The class given is cell-based, human. To be noted: 500 μM CPO in the presence of TGFβ.
In series [2] the test system is CAGA box reporter vector in HepG2 cells.
Experimental: (§2) FIG. 1C: HepG2 and Mv1Lu cells were transfected with p3TP-Lux or a vector containing nine or twelve copies of the CAGA box upstream of the minimal Adenovirus Major Late Promoter (MLP). Fold inductions by TGFβ are given for HepG2 cells.
(§3) FIG. 3B: HepG2 cells were transfected with a (CAGA)12-MLP-Luc reporter construct and induced by BMP-7, activin or TGFβ (respectively 100 ng/mL, 20 ng/mL and 10 ng/mL).
(§4) HepG2 and MDA-MB468 cells were transiently transfected, with the indicated constructs and the internal control pRL-TK vector, using the calcium phosphate co-precipitation method. When increasing amounts of expression vectors were transfected, total DNA was kept constant by addition of pCMV5. Cells were serum starved for 8 h before stimulation with 7 ng/mL of human recombinant TGFβ1 (R&D) and luciferases activities were quantified 14 h later using the Dual Luciferase Assay (Promega). For activin and BMP-7 (Creative Biomolecules) induction, respectively 20 ng/mL and 100 ng/mL were used. Values were normalized with the renilla luciferase activity expressed from pRL-TK. […] Luciferase values shown in figures are representative of transfection experiments done at least three times.
Series [3] relates to renilla luciferase driven by the RSV LTR, clone 1613. As to the kind of experiment: Renilla luciferase specificity/toxicity control (pRc/Renilla), clone 1613. To be noted: for relative renilla luciferase activities (fold induction): value 1 = absence of TGFβ. The text has this: (§1) The expression of this transgene should not be regulated by TGFβ or activin, i.e. it should not contain CAGA sequences in its regulatory regions. For instance, the renilla-luciferase gene can be transcribed from the RSV (Rous Sarcoma Virus) promoter or SV (Simian Virus 40) promoter. […] This means that an agent acting specifically through CAGA boxes-mediated transcription will have an effect on the firefly luciferase activity but not on the renilla luciferase activity.

The test system of series [4] is renilla luciferase driven by the RSV LTR, clone F89. As to the kind of experiment: Renilla luciferase specificity/toxicity control (pRc/Renilla), clone F89. The conditions noted are these: for relative renilla luciferase activities (fold induction): value 1 = absence of TGFβ.
From the text: as §1

The subject of series [5] is human PAI-1 promoter (PAI-1-Luc, clone 1613). As to the kind of experiment: Human PAI-1-Luc firefly luciferase reporter, stable clone 1613. The conditions noted are these: for relative firefly luciferase activities (fold induction): value 1 = absence of TGFβ. (In a reporter assay the amount or activity of a reporter protein is the signal.)
Experimental: (§5) Thus, the renilla luciferase activity can be used as an internal toxicity control.
(§6) At day 1, 40 (96 well-) microplates are seeded, using a multidrop apparatus, with CAGA-reporter cells (i.e F89 or 1613) at a concentration of 35000 cells per well in 200 μl of serum-containing medium.
(§7) 8 to 24 hours later (Day 2), microplates containing the chemical compounds to be tested, diluted in 100% DMSO, are placed in a carousel and the cell-incubation procedure is launched. The computer system coordinates then the actions of different peripheric equipments in order to incubate the cells in the presence of TGFβ with the coumpounds to be tested.
(§8) Cells and compounds microplates are moved through the robotic line to the adequate peripheries by the axial rotatable arm. Cells are washed and incubated in a serum-free medium. The pippetage station realizes different operations including preliminary dilutions in order to incubate the cells with TGFβ and the chemical compounds to be tested. The final concentration of TGFβ (rhTGFβ-1 from R & D) used in the test is 1 ng/mL and the compounds are tested at a final concentration of 10 μl in a final concentration of DMSO of 1%. Cells are incubated with the compounds to be tested 15-30 mn prior the addition of TGFβ. The final volume of the test reaction is 150 μl. Wells A1 through H10 are the test wells and contain cells incubated with the chemical agents to be tested in the presence of TGFβ. Each well contains only one singular chemical compound and allows to test its effect on CAGA-mediated transcription. Columns 11 and 12 are kept for controls. Column 11 contains 8 wells where cells are incubated in the presence of TGFβ without chemical compounds. Column 11 determines of the reference TGFβ-induced firefly luciferase value to which will be compared the values measured in the test wells to identify potential inhibitor or activator coumpounds. In wells A12 to D12, cells are grown in medium without TGFβ. The firefly luciferase value obtained with these points represents the ‘basal firefly luciferase activity’ and allows to control that the TGFβ induction is correct. In wells E12 to H12, cells are incubated in the presence of TGFβ with 500 μM CPO (Cyclopentenone, Sigma) which is a cell toxic compound. […] These points allows to control that the test is sensitive to toxic compounds.
(§9) 12 to 18 hours later (day 3), the luciferase quantification procedure is launched. The following reactions are realized using reagents of the Dual Luciferase Assay Kit from Promega. Cells are washed and lysed with the addition of 10 μl of passive lysis buffer (Promega). After 15 to 30 mn of agitation, luciferase activities of the plates are read in a dual-injector luminometer (BMG lumistar).
The subject of series [6] is CAGA box-mediated transcription ((CAGA)9MLP-Luc, clone F89). As to the kind of experiment: TGFβ-responsive (CAGA)9MLP-Luc firefly luciferase reporter, stable clone F89. To be noted: for relative firefly luciferase activities (fold induction): value 1 = absence of TGFβ.
Experimental: as §5, §6, §7, §8, §9
Series [7] has as its system CAGA box reporter vector in HepG2 cells. The series is described as follows: Transient CAGA boxes-MLP-Luc reporter in HepG2 cells. The conditions noted are these: (CAGA)12-MLP-Luc, TGFβ 10 ng/mL.
Experimental: as §2, §3, §4

For `O=C1C=CCC1` [CPO, Cyclopentenone], in series [1], the “firefly luciferase activity relative to TGFβ-only wells” value was “around 50%” and the “renilla luciferase activity relative to TGFβ-only wells” value was “around 50%”.
As to “TGFβ: human recombinant TGFβ1 (R&D), cytokine used to induce CAGA box-mediated transcription”, the TGFβ-mediated fold induction entry in series [2] is on record as “Several hundred”. The “relative renilla luciferase activities (fold induction)” value is recorded as 0.8 fold induction in series [3] (TGFβ 0.2 ng/mL); 1 fold induction in series [3] (TGFβ 1 ng/mL); 1 fold induction in series [3] (TGFβ 5 ng/mL); 1.3 fold induction in series [3] (TGFβ 10 ng/mL); 1.1 fold induction in series [4] (TGFβ 0.2 ng/mL); 1.1 fold induction in series [4] (TGFβ 0.5 ng/mL). Also, the “relative renilla luciferase activities (fold induction)” value in series [4] (TGFβ 1 ng/mL) amounted to 1.2 fold induction; in series [4] (TGFβ 5 ng/mL), 1.5 fold induction; in series [4] (TGFβ 10 ng/mL) it was 1.8 fold induction. Besides, the “relative firefly luciferase activities (fold induction)” value in series [5] (TGFβ 0.2 ng/mL) was determined as 8 fold induction; in series [5] (TGFβ 1 ng/mL) it was 26.2 fold induction; in series [5] (TGFβ 5 ng/mL) it was 43.5 fold induction; in series [5] (TGFβ 10 ng/mL), 50.1 fold induction; in series [6] (TGFβ 0.2 ng/mL) it was 6 fold induction; in series [6] (TGFβ 0.5 ng/mL), 31 fold induction. In addition, the “relative firefly luciferase activities (fold induction)” value in series [6] (TGFβ 1 ng/mL) is 109 fold induction; in series [6] (TGFβ 5 ng/mL), 461 fold induction; in series [6] (TGFβ 10 ng/mL) it was 737 fold induction. Moreover, in series [7], the “fold induction of CAGA boxes containing reporter” value stood at 200 fold.
As to `CCOc1cc(/C=C(\C#N)C(N)=O)cc(CSc2ccccc2)c1O` [Compound A, α-cyano4-hydroxy-3-ethoxy-5-phenylthiomethyl cinnamamide], the “inhibitory effect on the renilla luciferase activities” value in series [3] (specificity/toxicity control) and in series [4] (specificity/toxicity control) was “not on the renilla luciferase activities” throughout. In addition, the “firefly luciferase activity (value 100 = absence of compound A, 1 ng/mL TGFβ)” value in series [5] (compound A 0.1 μM) came to 105; in series [5] (compound A 1 μM), 102; in series [5] (compound A 5 μM) it was 65; in series [5] (compound A 10 μM), 36; in series [6] (compound A 0.1 μM), 98; in series [6] (compound A 1 μM), 95. Further, the “firefly luciferase activity (value 100 = absence of compound A, 1 ng/mL TGFβ)” value was 86 in series [6] (compound A 5 μM) and 23 in series [6] (compound A 10 μM).
